The target of data set [1] is AskA (ambruticin sensor kinase A, MXAN_0712), hybrid histidine kinase (Myxococcus xanthus). The data set can be described thus: SPR; equilibrium analysis on Biacore X100; ligand amine-coupled to a CM5 chip (which partner is not told); analyte in KB1 running buffer, 0.001 to 1000 µM; 25 °C; 1:1 fit; triplicates. In general terms: In SPR one partner is held on a chip, and binding of the other changes the refractive index at the surface.

Data set [2] shares this target. The data set can be described thus: MST; NT647-labelled C-terminally His6-tagged AskA, AskB or AskC titrated with serial 1:1 dilutions of non-labelled protein; buffer KB1 (500 mM NaCl, 25 mM HEPES, 0.2% Triton X100, pH 7.4); 25 °C; 40% LED power, 40% MST power; triplicates.
Data set [3] has the same target. The data set can be described thus: MST + SPR; average of the KD values from MST and from SPR (mean KD of Table 1).
Data set [4] deals with AskB (ambruticin sensor kinase B, MXAN_6735), hybrid histidine kinase (Myxococcus xanthus). The data set can be described thus: SPR; equilibrium analysis on Biacore X100; ligand amine-coupled to a CM5 chip (which partner is not told); analyte in KB1 running buffer, 0.001 to 1000 µM; 25 °C; 1:1 fit; triplicates.
For data set [5] the target is unchanged. The data set can be described thus: MST; NT647-labelled C-terminally His6-tagged AskA, AskB or AskC titrated with serial 1:1 dilutions of non-labelled protein; buffer KB1 (500 mM NaCl, 25 mM HEPES, 0.2% Triton X100, pH 7.4); 25 °C; 40% LED power, 40% MST power; triplicates.
Data set [6] has the same target. The data set can be described thus: MST + SPR; average of the KD values from MST and from SPR (mean KD of Table 1).
Data set [7] relates to MrpC (Myxococcus xanthus DK1622). The data set can be described thus: EMSA. To be noted: EMSA: 25 mM K-acetate, 8 mM MgSO4, 0.1 mM DTT, 15 mM Tris-HCl pH 7.3, 8% glycerol, 250 ng poly-dIdC, 200 fmol DNA, 15 ul, 30 C 30 min. Pull-down (purified): …. A general note: In EMSA bound probe runs differently from free probe, usually more slowly.
The target of data set [8] is T1, AskC (hybrid histidine kinase, MXAN_6734) (Myxococcus xanthus, UniProt Q1CXM2).
T1 construct: C-terminally His6-tagged AskC
T1 sequence (Q1CXM2 1-671): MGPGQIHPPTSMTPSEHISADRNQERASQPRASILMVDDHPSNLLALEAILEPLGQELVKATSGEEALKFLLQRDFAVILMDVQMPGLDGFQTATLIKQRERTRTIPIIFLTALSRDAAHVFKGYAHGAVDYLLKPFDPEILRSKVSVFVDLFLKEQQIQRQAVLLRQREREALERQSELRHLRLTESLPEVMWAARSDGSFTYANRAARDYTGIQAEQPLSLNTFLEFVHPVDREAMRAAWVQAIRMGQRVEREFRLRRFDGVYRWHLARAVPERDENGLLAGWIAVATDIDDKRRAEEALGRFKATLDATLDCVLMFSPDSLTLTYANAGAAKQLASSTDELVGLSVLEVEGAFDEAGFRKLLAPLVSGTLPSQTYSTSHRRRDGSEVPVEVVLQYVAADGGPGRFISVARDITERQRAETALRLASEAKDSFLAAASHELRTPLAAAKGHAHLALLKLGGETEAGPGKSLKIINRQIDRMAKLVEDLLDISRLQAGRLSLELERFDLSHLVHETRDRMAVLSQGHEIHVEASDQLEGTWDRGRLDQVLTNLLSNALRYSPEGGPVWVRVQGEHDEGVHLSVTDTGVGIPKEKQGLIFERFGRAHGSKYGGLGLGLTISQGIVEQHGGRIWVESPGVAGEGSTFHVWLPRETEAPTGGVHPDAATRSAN
The data set can be described thus: MST and SPR with purified protein (KD […] by MST, […] by SPR; mean given). In kind it is binding.

Data set [9] addresses AskC (MXAN_6734), hybrid histidine kinase, C-terminally His6-tagged (Myxococcus xanthus). The data set can be described thus: SPR; equilibrium analysis on Biacore X100; ligand amine-coupled to a CM5 chip (which partner is not told); analyte in KB1 running buffer, 0.001 to 1000 µM; 25 °C; 1:1 fit; triplicates.
Data set [10] shares this target. The data set can be described thus: MST; NT647-labelled C-terminally His6-tagged AskA, AskB or AskC titrated with serial 1:1 dilutions of non-labelled protein; buffer KB1 (500 mM NaCl, 25 mM HEPES, 0.2% Triton X100, pH 7.4); 25 °C; 40% LED power, 40% MST power; triplicates.
Data set [11] has the same target. The data set can be described thus: MST + SPR; average of the KD values from MST and from SPR (mean KD of Table 1).

The values that follow come from PMC7643160, “An ambruticin-sensing complex modulates Myxococcus xanthus development and mediates myxobacterial interspecies communication” (Nature Communications, 2020).

Sequence of AskB (ambruticin sensor kinase B, MXAN_6735), hybrid histidine kinase (Myxococcus xanthus) (main, as listed by the source): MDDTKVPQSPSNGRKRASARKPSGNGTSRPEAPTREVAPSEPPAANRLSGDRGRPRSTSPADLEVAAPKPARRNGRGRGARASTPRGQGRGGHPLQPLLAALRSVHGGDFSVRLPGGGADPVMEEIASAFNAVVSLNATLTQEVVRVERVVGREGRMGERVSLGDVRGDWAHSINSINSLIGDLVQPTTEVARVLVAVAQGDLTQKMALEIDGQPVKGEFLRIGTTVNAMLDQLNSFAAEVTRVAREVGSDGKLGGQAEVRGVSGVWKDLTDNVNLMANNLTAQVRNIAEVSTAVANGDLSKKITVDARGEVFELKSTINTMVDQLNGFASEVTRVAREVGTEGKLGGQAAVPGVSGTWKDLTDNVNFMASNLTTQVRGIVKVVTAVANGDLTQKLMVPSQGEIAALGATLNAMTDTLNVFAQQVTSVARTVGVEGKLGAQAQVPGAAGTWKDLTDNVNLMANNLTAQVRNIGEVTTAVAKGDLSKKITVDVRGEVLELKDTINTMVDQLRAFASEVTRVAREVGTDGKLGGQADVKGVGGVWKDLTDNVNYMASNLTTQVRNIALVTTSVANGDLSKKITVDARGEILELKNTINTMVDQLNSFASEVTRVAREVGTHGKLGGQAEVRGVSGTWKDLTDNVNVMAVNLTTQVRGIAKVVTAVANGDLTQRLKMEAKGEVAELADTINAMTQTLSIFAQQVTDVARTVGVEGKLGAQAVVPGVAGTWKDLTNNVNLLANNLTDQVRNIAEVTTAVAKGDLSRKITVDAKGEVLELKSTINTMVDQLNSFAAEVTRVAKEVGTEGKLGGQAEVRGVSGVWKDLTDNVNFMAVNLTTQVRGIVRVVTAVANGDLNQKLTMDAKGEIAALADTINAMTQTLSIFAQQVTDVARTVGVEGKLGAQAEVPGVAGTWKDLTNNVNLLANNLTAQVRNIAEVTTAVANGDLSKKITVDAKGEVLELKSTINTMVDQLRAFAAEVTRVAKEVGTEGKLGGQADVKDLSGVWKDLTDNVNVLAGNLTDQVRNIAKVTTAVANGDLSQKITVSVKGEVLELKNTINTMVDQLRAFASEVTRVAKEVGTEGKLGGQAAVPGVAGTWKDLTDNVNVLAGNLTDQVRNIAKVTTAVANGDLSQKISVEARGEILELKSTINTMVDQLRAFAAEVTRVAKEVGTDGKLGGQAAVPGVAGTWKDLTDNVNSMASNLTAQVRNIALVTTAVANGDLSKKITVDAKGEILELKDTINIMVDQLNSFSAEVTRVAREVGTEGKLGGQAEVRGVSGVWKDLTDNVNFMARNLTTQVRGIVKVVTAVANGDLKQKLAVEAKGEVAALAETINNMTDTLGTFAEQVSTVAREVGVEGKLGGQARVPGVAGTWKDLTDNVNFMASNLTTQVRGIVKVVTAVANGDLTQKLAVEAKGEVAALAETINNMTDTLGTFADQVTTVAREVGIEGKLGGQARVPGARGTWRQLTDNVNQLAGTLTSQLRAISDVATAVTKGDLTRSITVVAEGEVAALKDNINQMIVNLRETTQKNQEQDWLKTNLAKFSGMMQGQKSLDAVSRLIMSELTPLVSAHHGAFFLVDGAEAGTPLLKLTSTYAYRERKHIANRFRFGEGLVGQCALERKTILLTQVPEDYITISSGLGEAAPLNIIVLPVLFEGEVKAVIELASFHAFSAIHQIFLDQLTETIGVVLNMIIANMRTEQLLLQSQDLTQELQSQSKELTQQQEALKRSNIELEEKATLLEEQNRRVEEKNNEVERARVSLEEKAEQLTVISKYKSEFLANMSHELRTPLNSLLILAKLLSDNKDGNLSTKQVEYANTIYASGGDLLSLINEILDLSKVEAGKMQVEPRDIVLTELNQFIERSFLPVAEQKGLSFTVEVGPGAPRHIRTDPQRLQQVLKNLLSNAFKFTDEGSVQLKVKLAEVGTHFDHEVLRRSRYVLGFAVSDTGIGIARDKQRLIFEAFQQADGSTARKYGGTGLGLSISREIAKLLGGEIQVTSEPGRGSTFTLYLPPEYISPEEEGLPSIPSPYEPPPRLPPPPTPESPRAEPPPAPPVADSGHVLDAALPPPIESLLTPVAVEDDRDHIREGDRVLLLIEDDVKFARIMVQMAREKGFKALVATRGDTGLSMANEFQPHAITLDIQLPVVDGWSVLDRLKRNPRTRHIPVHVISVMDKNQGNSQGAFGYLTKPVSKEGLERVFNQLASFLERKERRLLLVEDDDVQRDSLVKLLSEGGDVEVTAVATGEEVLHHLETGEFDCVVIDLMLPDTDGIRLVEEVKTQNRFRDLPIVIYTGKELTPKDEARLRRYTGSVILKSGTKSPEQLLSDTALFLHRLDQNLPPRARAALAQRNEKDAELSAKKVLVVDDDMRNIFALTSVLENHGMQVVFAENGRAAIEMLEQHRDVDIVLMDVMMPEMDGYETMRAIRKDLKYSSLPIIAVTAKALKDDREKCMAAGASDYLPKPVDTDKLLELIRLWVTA
Sequence of AskA (ambruticin sensor kinase A, MXAN_0712), hybrid histidine kinase (Myxococcus xanthus) (main, as listed by the source): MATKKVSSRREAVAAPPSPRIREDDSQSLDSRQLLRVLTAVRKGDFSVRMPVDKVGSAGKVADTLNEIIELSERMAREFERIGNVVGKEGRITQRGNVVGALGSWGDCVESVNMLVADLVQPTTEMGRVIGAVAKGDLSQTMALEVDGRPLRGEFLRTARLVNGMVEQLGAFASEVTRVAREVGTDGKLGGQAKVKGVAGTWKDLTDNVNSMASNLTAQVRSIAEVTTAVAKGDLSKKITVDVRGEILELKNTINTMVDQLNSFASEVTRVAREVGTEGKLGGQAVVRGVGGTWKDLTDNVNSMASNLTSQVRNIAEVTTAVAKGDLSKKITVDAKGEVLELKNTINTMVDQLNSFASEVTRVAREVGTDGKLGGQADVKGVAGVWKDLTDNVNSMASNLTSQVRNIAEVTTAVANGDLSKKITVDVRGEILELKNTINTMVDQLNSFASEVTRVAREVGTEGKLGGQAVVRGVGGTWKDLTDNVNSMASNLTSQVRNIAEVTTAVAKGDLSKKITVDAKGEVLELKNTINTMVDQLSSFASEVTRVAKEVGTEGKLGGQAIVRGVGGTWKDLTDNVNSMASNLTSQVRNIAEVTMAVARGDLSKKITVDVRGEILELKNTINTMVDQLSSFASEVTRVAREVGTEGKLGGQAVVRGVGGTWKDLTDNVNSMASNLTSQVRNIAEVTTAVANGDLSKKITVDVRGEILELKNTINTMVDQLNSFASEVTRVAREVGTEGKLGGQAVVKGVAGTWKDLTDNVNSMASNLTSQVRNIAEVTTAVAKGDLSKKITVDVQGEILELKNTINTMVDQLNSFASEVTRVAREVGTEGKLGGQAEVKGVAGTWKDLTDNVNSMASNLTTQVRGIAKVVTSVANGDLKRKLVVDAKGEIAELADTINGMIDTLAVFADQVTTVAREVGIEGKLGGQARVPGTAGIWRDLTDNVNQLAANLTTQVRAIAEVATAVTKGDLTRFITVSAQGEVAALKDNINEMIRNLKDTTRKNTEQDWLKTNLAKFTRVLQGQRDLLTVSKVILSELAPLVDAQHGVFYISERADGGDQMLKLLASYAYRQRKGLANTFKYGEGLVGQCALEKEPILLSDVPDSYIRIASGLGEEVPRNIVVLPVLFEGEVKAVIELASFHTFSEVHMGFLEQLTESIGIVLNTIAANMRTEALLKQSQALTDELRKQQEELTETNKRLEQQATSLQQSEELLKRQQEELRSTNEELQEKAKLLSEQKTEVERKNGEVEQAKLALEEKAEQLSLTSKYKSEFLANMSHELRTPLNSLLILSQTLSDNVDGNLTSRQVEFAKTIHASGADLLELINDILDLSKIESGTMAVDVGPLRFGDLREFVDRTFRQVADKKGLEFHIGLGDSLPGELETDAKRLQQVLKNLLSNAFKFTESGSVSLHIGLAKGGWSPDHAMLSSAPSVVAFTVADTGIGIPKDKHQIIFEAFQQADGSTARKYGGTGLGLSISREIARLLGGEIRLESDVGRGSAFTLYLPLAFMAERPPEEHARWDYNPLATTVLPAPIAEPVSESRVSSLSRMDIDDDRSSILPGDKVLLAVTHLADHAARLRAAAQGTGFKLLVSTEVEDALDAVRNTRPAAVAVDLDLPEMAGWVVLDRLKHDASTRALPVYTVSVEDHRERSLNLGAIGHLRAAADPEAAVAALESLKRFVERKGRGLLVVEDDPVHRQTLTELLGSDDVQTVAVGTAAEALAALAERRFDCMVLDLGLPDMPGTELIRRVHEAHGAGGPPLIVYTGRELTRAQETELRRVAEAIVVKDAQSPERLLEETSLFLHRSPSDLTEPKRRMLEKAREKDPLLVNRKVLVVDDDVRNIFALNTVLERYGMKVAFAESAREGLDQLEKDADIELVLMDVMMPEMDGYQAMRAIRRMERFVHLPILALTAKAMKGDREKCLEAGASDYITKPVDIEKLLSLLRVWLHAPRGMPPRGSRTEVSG

With “AskB (ambruticin sensor kinase B, MXAN_6735), hybrid histidine kinase (enzyme)”, the dissociation constant (Kd) in data set [1] was 3000 nM; in data set [2], 2300 nM. Besides, the mean KD in data set [3] turned out to be 2.8 µM.
Consider “AskC (MXAN_6734), hybrid histidine kinase, C-terminally His6-tagged (enzyme)”, for which the dissociation constant Kd came to 1400 nM in [1], 400 nM in data set [4], 4100 nM in data set [2] and 900 nM in [5]. Also, the figures for the mean KD in [3] and in data set [6] were 2.8 µM and 0.7 µM, respectively.
As to HEX-PmrpC, the Kd in data set [7] is less than 5 nM.
For `CCC1OC(/C(C)=C/C(C)/C=C/C2C(C)C2/C=C/C2OC(CC(=O)O)CC(N(C)C)C2O)CC=C1C` (centres unmarked) [ambVS3, ambruticin VS-3], the affinity in data set [8], expressed as Kd, was 300 ± 200 µM.

B1: MrpC, transcriptional regulator of development (natural protein)
chain: MHGFNRPLGPIGSNVVAPLQTTSSGMMVTANKLVPGQEAIDFKGYFKVESFPHNSTIYRPGDNTDRVYLLKSGRVRLMRIGKNSTRSVVSILRPGDLFGELFRPEGTPIEEMAIAAGEAEVWSIEGRDFRAQLEARPALAVDVVRAYAERVRALRKRVLGLTFKEVPARLADTLLTLVEAHGERCPHGGETDLRGITQQDLADLVGASRSFVSTLINEMKREGVLGNVGRILCVRDQKALRKIAGKEK
Consider B1, for which the dissociation constant Kd was determined as 1000 nM in data set [1]; 1600 nM in data set [9]; 300 nM in data set [4]; 500 nM in [2]; 1400 nM in data set [10]; 2100 nM in data set [5]. In addition, the mean KD in data set [3] came out at 0.8 µM; in data set [11] it was 1.5 µM; in [6], 1.2 µM.

B2: FruA, transcriptional regulator of development (natural protein)
chain: MATNQAAIRVSILEGPWAAWQGLADGLRGEGVQVSSVTRDVRLFLDSLGTDPPQVAVMDVEGDSEAAVGCSVTEGINLLREARKRRLEVRMLLLSAVSTPEIISQCFDEGASGYLFRAGLGTTAVASAINSLVRGERLFPVQLLRNDFEHPPVTSPTASVLLALTQREREVLAYVAGGADNLKIAAHLQIAERTVKSHVTQLYRKLGAENRTQLALRACHLGVRPPPDL
With B2, the equilibrium dissociation constant (Kd) in [1] was determined as 500 nM; in data set [9], 1500 nM; in data set [4], 200 nM; in [2], 1400 nM; in [10], 1300 nM; in [5] it was 2100 nM. In addition, the figures for the mean KD in data set [3], in data set [11] and in [6] were 1 µM, 1.4 µM and 1.2 µM, respectively.

In general, Kd refers to the constant that tells how readily two partners part at equilibrium.
